Source: patent US20020193304

Target: CD87 (UniProt Q03405)
UniProt Q03405, sequence (Q03405 whole entry, looked up): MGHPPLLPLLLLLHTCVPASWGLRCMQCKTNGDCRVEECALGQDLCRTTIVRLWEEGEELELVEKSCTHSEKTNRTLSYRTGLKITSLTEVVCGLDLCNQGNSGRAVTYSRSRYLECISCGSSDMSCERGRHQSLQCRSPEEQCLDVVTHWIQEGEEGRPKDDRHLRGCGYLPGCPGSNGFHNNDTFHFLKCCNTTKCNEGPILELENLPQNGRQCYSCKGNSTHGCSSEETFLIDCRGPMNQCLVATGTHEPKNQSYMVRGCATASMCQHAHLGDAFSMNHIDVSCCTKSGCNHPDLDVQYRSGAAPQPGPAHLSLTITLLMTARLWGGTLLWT

high molecular weight urokinase-type plasminogen activator (HMW-uPA)
anti-HIV activity (p17) of gel filtration fractions containing HMW-uPA (Nos. 15-18), co-culture assay: also were found to have anti-HIV activity (p17), thought that was weaker than ATF
